Measurements taken from US20180327506A1 (AbbVie / Abbott, published 2018).
Read-outs that look alike come from different tables or passages of the source.

T1: full-length mature human EMR2 (residues Q24-N823) with N-terminal aspartic acid/lysine epitope tag, … (human, UniProt Q9UHX3 24-823)
T1 sequence: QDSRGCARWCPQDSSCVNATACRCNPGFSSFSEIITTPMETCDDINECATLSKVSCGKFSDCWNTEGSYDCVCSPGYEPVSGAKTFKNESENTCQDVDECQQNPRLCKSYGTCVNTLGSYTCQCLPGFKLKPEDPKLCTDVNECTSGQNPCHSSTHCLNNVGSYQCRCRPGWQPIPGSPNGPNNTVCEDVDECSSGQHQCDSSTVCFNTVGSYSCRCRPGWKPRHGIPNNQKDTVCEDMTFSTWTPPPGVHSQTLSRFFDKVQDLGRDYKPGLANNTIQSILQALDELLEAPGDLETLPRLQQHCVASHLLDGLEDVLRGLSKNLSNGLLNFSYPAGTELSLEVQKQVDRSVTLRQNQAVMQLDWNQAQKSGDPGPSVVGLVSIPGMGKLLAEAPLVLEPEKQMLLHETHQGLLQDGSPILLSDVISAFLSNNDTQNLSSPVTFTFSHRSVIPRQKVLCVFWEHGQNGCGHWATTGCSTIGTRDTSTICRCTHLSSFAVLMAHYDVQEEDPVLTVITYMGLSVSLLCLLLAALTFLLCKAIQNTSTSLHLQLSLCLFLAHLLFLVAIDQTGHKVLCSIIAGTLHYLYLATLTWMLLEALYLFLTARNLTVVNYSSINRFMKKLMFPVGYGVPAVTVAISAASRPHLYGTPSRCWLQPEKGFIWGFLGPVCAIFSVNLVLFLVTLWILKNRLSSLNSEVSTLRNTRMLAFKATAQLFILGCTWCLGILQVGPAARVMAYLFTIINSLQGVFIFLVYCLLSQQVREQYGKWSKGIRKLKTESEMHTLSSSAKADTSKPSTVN

T2: full-length mature human CD97 (residues Q21-I845) with N-terminal aspartic acid/lysine epitope tag, … (human, UniProt P48960 21-835)
T2 sequence (looked up): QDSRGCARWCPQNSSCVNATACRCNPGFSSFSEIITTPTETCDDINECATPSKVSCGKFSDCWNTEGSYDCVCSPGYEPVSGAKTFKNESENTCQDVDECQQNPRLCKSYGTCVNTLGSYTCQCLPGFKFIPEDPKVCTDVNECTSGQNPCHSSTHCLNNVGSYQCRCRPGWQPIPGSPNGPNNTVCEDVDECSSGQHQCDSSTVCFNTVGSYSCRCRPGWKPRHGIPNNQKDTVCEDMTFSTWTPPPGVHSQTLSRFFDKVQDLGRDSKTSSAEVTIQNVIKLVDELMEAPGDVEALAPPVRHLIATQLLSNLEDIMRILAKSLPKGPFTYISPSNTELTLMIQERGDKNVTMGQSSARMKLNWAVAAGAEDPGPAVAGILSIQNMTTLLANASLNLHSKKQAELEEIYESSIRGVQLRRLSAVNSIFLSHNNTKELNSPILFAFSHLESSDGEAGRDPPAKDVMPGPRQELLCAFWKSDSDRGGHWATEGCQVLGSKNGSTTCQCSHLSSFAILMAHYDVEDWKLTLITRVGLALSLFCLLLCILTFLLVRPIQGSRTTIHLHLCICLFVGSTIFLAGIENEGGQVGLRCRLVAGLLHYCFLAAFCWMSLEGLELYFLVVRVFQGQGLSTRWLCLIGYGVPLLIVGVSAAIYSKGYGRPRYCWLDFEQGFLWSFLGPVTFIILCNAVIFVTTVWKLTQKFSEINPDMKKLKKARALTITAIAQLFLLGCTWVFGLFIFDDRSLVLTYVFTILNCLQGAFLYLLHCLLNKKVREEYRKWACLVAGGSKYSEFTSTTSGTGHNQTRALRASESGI

T3: full-length mature cynomolgus EMR2 (residues Q24-N816) with N-terminal aspartic acid/lysine epitope tag, … (cynomolgus monkey (Macaca fascicularis), UniProt A0A2K5WL23 21-816)
T3 sequence: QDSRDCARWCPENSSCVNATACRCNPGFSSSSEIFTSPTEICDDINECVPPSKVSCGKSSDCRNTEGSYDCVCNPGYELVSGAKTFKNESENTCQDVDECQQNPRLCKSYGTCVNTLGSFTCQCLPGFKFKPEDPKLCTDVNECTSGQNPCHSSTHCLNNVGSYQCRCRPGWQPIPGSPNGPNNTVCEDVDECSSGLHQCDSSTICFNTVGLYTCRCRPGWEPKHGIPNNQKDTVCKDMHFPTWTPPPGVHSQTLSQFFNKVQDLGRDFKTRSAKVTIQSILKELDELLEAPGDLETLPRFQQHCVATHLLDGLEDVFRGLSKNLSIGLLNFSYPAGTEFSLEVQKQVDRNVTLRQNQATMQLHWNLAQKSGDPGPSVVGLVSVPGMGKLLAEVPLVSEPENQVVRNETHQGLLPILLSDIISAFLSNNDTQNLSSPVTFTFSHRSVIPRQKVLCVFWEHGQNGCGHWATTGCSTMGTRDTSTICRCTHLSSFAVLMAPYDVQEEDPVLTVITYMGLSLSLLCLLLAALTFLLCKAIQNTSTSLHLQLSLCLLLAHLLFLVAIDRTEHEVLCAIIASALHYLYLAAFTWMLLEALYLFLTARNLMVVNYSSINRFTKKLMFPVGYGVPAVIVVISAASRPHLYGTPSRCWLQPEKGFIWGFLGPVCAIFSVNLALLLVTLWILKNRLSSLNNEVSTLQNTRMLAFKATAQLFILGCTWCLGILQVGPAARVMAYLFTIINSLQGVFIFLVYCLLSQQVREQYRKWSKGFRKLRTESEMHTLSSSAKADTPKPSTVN


Legend:
[1] = target: T1, full-length mature human EMR2 (residues …); assay: cell-based or functional assay
[2] = target: T2, full-length mature human CD97 (residues …); assay: cell-based or functional assay
[3] = target: T1, full-length mature human EMR2 (residues …); assay: cell-based or functional assay; remark: listed apart in the source
[4] = target: T3, full-length mature cynomolgus EMR2 …; assay: cell-based or functional assay
[5] = target: T2, full-length mature human CD97 (residues …); assay: cell-based or functional assay; remark: listed apart in the source
[6] = target: T1, full-length mature human EMR2 (residues …); assay: flow cytometry on transduced HEK293T; 293 naive MFI 99.5
Procedure: (§1) The exemplary antibodies were also tested using flow cytometry to determine their ability to associate with hEMR2, cEMR2 and CD97 expressed on the surface of cells.

[7] = target: T3, full-length mature cynomolgus EMR2 …; assay: as above
Procedure: as §1

[8] = target: T2, full-length mature human CD97 (residues …); assay: as above
Procedure: as §1

[9] = target: T1, full-length mature human EMR2 (residues …); assay: flow cytometry on transduced HEK293T; 293 naive MFI 97.8
Procedure: as §1

[10] = target: T3, full-length mature cynomolgus EMR2 …; assay: as above
Procedure: as §1

[11] = target: T2, full-length mature human CD97 (residues …); assay: as above
Procedure: as §1

[12] = target: T1, full-length mature human EMR2 (residues …); assay: flow cytometry on transduced HEK293T; 293 naive MFI 326
Procedure: as §1

[13] = target: T3, full-length mature cynomolgus EMR2 …; assay: as above
Procedure: as §1

[14] = target: T2, full-length mature human CD97 (residues …); assay: as above
Procedure: as §1

[15] = target: T1, full-length mature human EMR2 (residues …); assay: flow cytometry on transduced HEK293T; 293 naive MFI 97.1
Procedure: as §1

[16] = target: T3, full-length mature cynomolgus EMR2 …; assay: as above
Procedure: as §1

[17] = target: T2, full-length mature human CD97 (residues …); assay: as above
Procedure: as §1

| Binder | % live, FAB-saporin killing assay [1] | % live, FAB-saporin killing assay [2] | % live, FAB-saporin killing assay [3] | % live, FAB-saporin killing assay [4] | % live, FAB-saporin killing assay [5] | also measured |
| --- | --- | --- | --- | --- | --- | --- |
| SC93.15 (antibody, IgG1, V domains shown) VH: EVQLQQSGPELVKPGASVKISCKGSGYTFTDYFMNWVKLSHGKSLEWIGEINPNNGGTNYNQKFKGKATLTVDKSSSIAYMELRSLTSEDSAVYYCARPGTNYWGPGTTLTVSS VL: DIVMTQSHKFMSTSVGDRVSITCKASQNVGTSVAWYQQKPGHSPKLLIYWASTRHTGVPDRFTGSGSGTDFSLTISSVQSEDLTDYFCQQYSSYPLTFGGGTKLEIK | 15% | 99.5% |  |  |  |  |
| SC93.253 (antibody, V domains shown, Murine hybridoma antibody with a kappa light chain) VH: not shown VL: DIVMTQSQKFMSTSVGDRIIITCKASQNVRTTVDWYQQKPGQSPKVLISLASNRHTGVPDRFTGSGSGTDFTLTISNVQSEDLADYFCLQHRNYPLTFGGGTKLEIK |  |  | 13.4% | 11.1% | 92.2% | FC MFI [6]: 38300; FC MFI [7]: 48700; FC MFI [8]: 328 |
| SC93.239 (antibody, V domains shown, Murine hybridoma antibody with a kappa light chain; also called clone SC93.239; SC93.239 (Bin A)) VH: LVQLQQSGVELARPGASVKLSCKASGYIFTSYGISWVKQRTGQGLEWIGNIYPRTGNTYYNEKFKDKATLTADKSSNTAYMELRSLTSEDSAVYFCARGTHYDPLDYWGQGTTLTVSS VL: ENVLTQSPAIMSASPGEKVTMTCRASSSVSSSDLHWYQQKSGASPKLWIYSTSNLASGVPARFSGSGSGASCSLTISSVEAEDAATYYCHQYSGYPWTFGGGTKLEIK |  |  | 16.8% | 16.7% | 106% | FC MFI [9]: 71100; FC MFI [10]: 76700; FC MFI [11]: 925 |
| SC93.216 (antibody, IgG1, V domains shown) VH: EVQLVESGGGLVKPGGSLKLSCAASGFTFSSYGMSWVRQTPEKRLEWVAAIHSNGDITYYPDTVKGRFTISRDNAKNTLYLQMSSLTSEDTALYYCANLAYWGQGTLVTVSA VL: EIQMTQSPSSMSASLGDRITITCQATQDIVKNLNWYQQKPGKSPSSLIYYATELAEGVPSRFSGSGSGSDYSLTISNLESEDFADYYCLQFYEFPLTFGAGTKLELK | 102% | 107% |  |  |  |  |
| SC93.252 (antibody, IgG2a, V domains shown, murine, IgG2a) VH: QVQLQQSDAELVKPGASVKISCKVSGFSFTDHTIHWMRQRPEQGLEWIGYIYPTDGNTRYNEKFKGKASLTADKSSTTAYMQLSSLTSEDSAVYFCAKRGYYWYFDVWGTGTTVTVSS VL: DIQMTQASSYLSVSLGGRVTITCKASDHINNWLAWYQQKPGNAPRLLISHATNLETGFPSRFSGSGSGKDYTLSITSLQTEDVATYYCQQYWNIPYTFGGGTKLEIE |  |  | 10.8% | 9.42% | 9.09% | FC MFI [12]: 40500; FC MFI [13]: 45200; FC MFI [14]: 43800 |
| SC93.243 (antibody, IgG2b, V domains shown, murine, IgG2b) VH: QVQLQQSGAELMKPGASVKISCKATGYTFSSYWIEWVKQRPGHGLEWIGEILPGSGRTNYNERLKGKATFTADTSSNTAYMQLSSLTSEDSAVYYCARPYFYGSNFDFWGQGTTLTVSS VL: DIVMTQSHKFMSTSVGDRVSITCKASQDVGTAVAWYQQKPGQSPKLLIYWASTRHTGVPDRFTGSGSGTDFTLTISNVQSEDLADYFCQQYSSYHTFGGGTKLEIK |  |  | 68.7% | 20.8% | 91.9% | FC MFI [15]: 42700; FC MFI [16]: 65800; FC MFI [17]: 8140 |
